In patent publication US20060057665A1, “Galectin-14 therapeutic molecule and uses thereof” (The University of Melbourne, priority 2001, published 2006):

B1: GST-galectin-14: Recombinant galectin-14 expressed in E. coli BL-21 as a GST fusion protein (pGEX-6P-2) (protein)
chain: MQSESGHEGDEELAFRDTQPPYINLPIPFTGRIEGGLQDGHKVTVMGRVLSTDENRFQVDFQMGISDTNNVAFHFNPRFEGSGYVVCNTMQLGNWGPEEKKMQMPFQKGSLFEICFKVDSSSFKVTVNGSIFLDYAHRLPFEQVNAISIGGCVHVSYISFQI
modifications: left off: a dimerising Fc or GST
B2: galectin-14: Ovine proto-type galectin, amino acid sequence <400>2; recombinant form cleaved from GST fusion, with 5 additional N-terminal amino acids (protein)
chain: B1 chain

Experiments:
[1] = test system: rabbit erythrocytes; assay: Hemagglutination assay on trypsin-treated, glutaraldehyde fixed rabbit erythrocytes; format: cell-based; conditions: for stability of agglutination activity upon storage: even in the presence of reducing agents
Procedure: Trypsin-treated, glutaraldehyde fixed rabbit erythrocytes were prepared and tested in an agglutination assay according to the method of Nowak et al. (Nowak et al. (1976) supra). Agglutination assays were performed in 96-well V-shaped microtiter plates with serial 2-fold dilutions of samples in 25 μl of DES (0.15 M NaCl, 2 mM EDTA, 2 mM dithiothreitol), 50 μl of 0.5% (w/v) BSA in 0.15 M NaCl and 25 μl of a 4% suspension of rabbit erythrocytes. The plates were shaken vigorously for 30 s, and agglutination was read after the plates had stood at room temperature for 1 h. Agglutinated erythrocytes formed a “mat” on the bottom of the well. For assessment of the inhibitory effects of saccharides, lactose, galactose, and N-acetyl-glucosamine were serially diluted in 25 μl of 0.15 M NaCl prior to the addition of recombinant protein in DES, 25 μl of 1% (w/v) BSA in 0.15 M NaCl, and 4% erythrocytes in PBS. The minimum concentration of GST-galectin-14 that gave mat formation (0.28 μM) was used in the saccharide inhibition assay. For assessment of the effects of antibody on GST-galectin-14 hemagglutination, ascites and supernatants from monoclonal antibodies and polyclonal rabbit sera all raised to recombinant galectin-14 were serially diluted in 25 μl of 0.15 M NaCl prior to the addition of recombinant protein in DES, 25 μl of 1% (w/v) BSA in 0.15 M NaCl, and 4% erythrocytes in PBS. A different batch of GST-galectin-14, which produced mat formation at a minimum concentration of 0.059 μM, was used at 0.059 μM and 0.042 μM to measure both inhibition and potentiation of agglutination by antibodies.

[2] = biological target: T1, laminin from Engelbreth-Holm-Swarm murine sarcoma (Mus musculus, UniProt P02468+P02469+P19137); assay: Solid-phase laminin binding assay; conditions: serial dilutions; detected with anti-GST HRP antibody, absorbance 450 nm
T1 construct: laminin from Engelbreth-Holm-Swarm murine sarcoma (Sigma); purchased Sigma; host or cells: Engelbreth-Holm-Swarm murine sarcoma (tissue-derived)
Procedure: FIG. 17 is an image of the saturation binding of GST-galectin-14 fusion protein to immobilised laminin. Laminin binding of GST-galectin-14 fusion protein was assayed using a solid-phase binding assay in a 96-well microtitre plate. Serial dilutions of GST-galectin-14 (▪) and GST (▴) were added to microtitre wells containing laminin. 0.3 M Lactose was added to GST-galectin-14 to inhibit binding (◯). The level of bound protein was monitored by the binding of rabbit anti-GST HRP antibody developed with TMB substrate and detected by a change in absorbance at 450 nm.
Laminin binding activity was measured according to the method of Mazurek et al. with some modification. Briefly, the wells of a 96-well microtitre plate were coated with laminin from Engelbreth-Holm-Swarm murine sarcoma (Sigma) at 1 μg/100 μl of carbonate coating buffer (15 mM Na2CO3, 35 mM NaHCO3, pH 9.6) per well overnight at 4° C. Non-specific binding sites were blocked with 200 μl of 0.5% Tween 20 in PBS for 1 h. Plates were washed 3 times in 0.05% Tween 20 PBS and incubated with 50 μl serial dilutions of GST-galectin-14 or GST alone, diluted in 0.5% Tween 20 PBS, for 1.5 h at 37° C. Control wells contained 0.3 M lactose. […] The reaction was terminated with 100 μl 2 M sulphuric acid and the colour change monitored using a dual wavelength mode plate reader (Bio-tek instruments) at 450 nm, ref 690 nm.

[3] = SDS-PAGE and Western blot analysis of recombinant galectin-14 after storage; format: physicochemical; conditions: storage at high concentrations; reducing conditions
Procedure: FIG. 10 is an image of SDS-PAGE and Western blot analysis of recombinant galectin-14 and endogenous proteins. […] The arrow points to the position of monomeric galectin-14. All samples were run under reducing conditions. […] Membranes were incubated with mAb supernatant for 2 h at room temperature, followed by incubation with secondary antibody, horseradish peroxidase-conjugated rabbit anti-mouse Ig (Dako, Carpinteria, Calif.), for at least 1 h at room temperature. Signals were detected using 1.5 mM 3,3′-diaminobenzidine tetrahydrochloride (DAB; Sigma), or ECL (Amersham Pharmacia Biotech).

Row | Molecule | maximum concentration which did not induce agglutination ([1]; batch used in the antibody potentiation assay) | minimum concentration that gave mat formation (agglutination) ([1]; batch used in the saccharide inhibition assay) | minimum concentration that produced mat formation (agglutination) ([1]; different batch, used in the antibody assays) | stability of agglutination activity upon storage [1] | binding to immobilised laminin [2] | minimum concentration exhibiting agglutination activity on rabbit erythrocytes ([1]; fresh cleaved and purified recombinant protein) | self-aggregation after storage [3]
1 | B1 | 0.042 µM | 0.28 µM | 0.059 µM | did not deteriorate upon storage | bound to laminin in a dose dependent manner | – | –
2 | B2 | – | – | – | rapidly lost upon storage | – | 0.16 µM | often self-aggregates into oligomers
